The results in this text go back to patent US11795460B2, “Compositions and methods for TTR gene editing and treating ATTR amyloidosis” (Intellia Therapeutics, Inc., priority 2017, dated 2023).

Strand notation (5' to 3'): a small letter for the sugar, then the base; units joined by * are phosphorothioate-linked, units joined directly phosphodiester-linked; [ ] holds rarer units or linkages, { } end groups; capitals alone tell only the bases. m = 2'-O-methyl; r = 2'-OH (RNA)

Common to all, as to assay type: in vivo, mouse
One data set deals with murine TTR. As to the kind of experiment: Liver editing in mice with murine TTR dosed with LNP formulations (Table 29). The conditions noted are these: wild type CD-1 mice; 1, 0.3, 0.1, 0.03, or 0.01 mg/kg; FIG. 15A. The protocol:
Unless otherwise noted, CD-1 female mice, ranging from 6-10 weeks of age were used in each study. Animals were weighed and grouped according to body weight for preparing dosing solutions based on group average weight. LNPs were dosed via the lateral tail vein in a volume of 0.2 mL per animal (approximately 10 mL per kilogram body weight). […] Body weight was measured at twenty-four hours post-administration, and animals were euthanized at various time points by exsanguination via cardiac puncture under isoflourane anesthesia. Blood was collected into serum separator tubes or into tubes containing buffered sodium citrate for plasma as described herein. […]
To quantitatively determine the efficiency of editing at the target location in the genome, sequencing was utilized to identify the presence of insertions and deletions introduced by gene editing. […]
Additional PCR was performed per the manufacturer's protocols (Illumina) to add chemistry for sequencing. […] The reads were aligned to a reference genome (e.g., the human reference genome (hg38), the cynomologus reference genome (mf5), the rat reference genome (rn6), or the mouse reference genome (mm10)) after eliminating those having low quality scores. […]

In a further data set the test system is human TTR protein. As to the kind of experiment: Human TTR protein ELISA in serum and cerebrospinal fluid of V30M mice. The conditions noted are these: V30M humanized mice, single 1 mg/kg dose, 8 weeks post treatment. The protocol:
(§1) A well-established humanized transgenic mouse model of hereditary ATTR amyloidosis that expresses the V30M pathogenic mutant form of human TTR protein was used in this Example. This mouse model recapitulates the TTR deposition phenotype in tissues observed in ATTR patients, including within the peripheral nervous system and gastrointestinal (GI) tract (See Santos et al., Neurobiol Aging. 2010 February; 31(2):280-9).
(§2) Mice (aged approximately 4-5 months) were dosed with LNP formulations prepared using the cross-flow and TFF procedures as described in Example 1. The LNPs were formulated with an N:P ratio of 6.0 and contained Lipid A, Cholesterol, DSPC, and PEG2k-DMG in a 50:38:9:2 molar ratio, respectively. The LNPs contained Cas9 mRNA (SEQ ID NO: 1) and either G000481 (“G481”) or a non-targeting control guide G000395 (“G395”; SEQ ID NO: 273), in a 1:1 ratio of gRNA:mRNA by weight.
(§3) Mice were injected via the lateral tail vein as described in Example 1 with a single 1 mg/kg (of total RNA content) dose of LNP with an n=10/group. […] Human TTR protein levels were measured in serum and cerebrospinal fluid (CSF) by ELISA as previously described by Butler et al., Amyloid. […] Other tissues (stomach, colon, sciatic nerve, dorsal root ganglion (DRG)) were collected and processed for semi-quantitative immunohistochemistry as previously described by Gonsalves et al., Amyloid. […]
In general terms: ELISA stands for enzyme-linked immunosorbent assay.

The subject of data set [1] is TTR protein amyloid deposition. The experiment in a line: Semi-quantitative immunohistochemistry of TTR in stomach, colon, sciatic nerve, DRG of V30M mice. The conditions noted are these: 8 weeks post-treatment, single 1 mg/kg dose. How it is done: as §1, §2, §3

B1: G000502: TTR Cyno specific sgRNA modified sequence, SEQ ID No. 114; guide sequence of CR000689; cross homologous between mouse and cyno (nucleic acid)
guide: mA*mC*mA*rCrArArArUrArCrCrArGrUrCrCrArGrCrGrGrUrUrUrUrArGrAmGmCmUmAmGmAmAmAmUmAmGmCrArArGrUrUrArArArArUrArArGrGrCrUrArGrUrCrCrGrUrUrArUrCrAmAmCmUmUmGmAmAmAmAmAmGmUmGmGmCmAmCmCmGmAmGmUmCmGmGmUmGmCmU*mU*mU*mU
B1: the “Liver editing, dose response” value in the data set on murine TTR was “A dose response for both editing and serum TTR levels was evident”.

B2: G000481: TTR sgRNA modified sequence, Human, SEQ ID No. 88; guide sequence of CR003345 (nucleic acid)
guide: mU*mC*mU*rArGrArArCrUrUrUrGrArCrCrArUrCrArGrGrUrUrUrUrArGrAmGmCmUmAmGmAmAmAmUmAmGmCrArArGrUrUrArArArArUrArArGrGrCrUrArGrUrCrCrGrUrUrArUrCrAmAmCmUmUmGmAmAmAmAmAmGmUmGmGmCmAmCmCmGmAmGmUmCmGmGmUmGmCmU*mU*mU*mU
For B2, the “TTR protein levels in CSF” value in the data set with human TTR protein is on record as “not in CSF”. In addition, the “Knockdown of TTR plasma levels” value in the data set on human TTR protein (p<0.001) is “greater than 99%”. The “Reduction in TTR staining across the treated tissues” value in data set [1] was no less than 85%.
